The text below walks through data of patent publication US20230054458A1 (JIANGSU HENGRUI MEDICINE, published 2023).

This test has as its target human claudin18.2 (Claudin 18.2, Genbank NP_001002026) (human). Kind of test: cell-based or functional assay.

B1: humanized antibody h1901-11 (antibody, human IgG1, kappa, V domains shown)
VH: EVQLVESGGGLVQPGGSLRLSCAASGFTFSDYGIHWVRQAPGKGLEWIAYISRGSSTIYYADTVKGRFTISRDNAKNSLYLQMTSLRAEDTAVYYCARGGYDTRNAMDYWGQGTTVTVSS
VL: DIVMTQSPDSLAVSLGERATISCKSSQSLLNSGNQKNYLAWYQQKPGQPPKLLIYGASTRASGVPDRFSGSGSGTDFTLTISSLQAEDVAIYHCQNDLYYPLTFGQGTKLEIKR
As to B1, the “ADCC effect IC50, FcrR3A-V158-NFAT-RE-Jurkat reporter luminescence, NUGC4 cells with high claudin18.2 expression” value is 0.0262 µg/mL; the “ADCC effect IC50, FcrR3A-V158-NFAT-RE-Jurkat reporter luminescence, NUGC4 cells with low claudin18.2 expression” value is 0.0224 µg/mL; the “ADCC effect IC50, FcrR3A-V158-NFAT-RE-Jurkat reporter luminescence, NUGC4 cells with moderate claudin18.2 expression” value worked out at 0.0154 µg/mL.

B2: IMAB-362 (positive control antibody, from WO2016166122) (antibody, human IgG1, kappa, V domains shown)
VH: QVQLQQPGAELVRPGASVKLSCKASGYTFTSYWINWVKQRPGQGLEWIGNIYPSDSYTNYNQKFKDKATLTVDKSSSTAYMQLSSPTSEDSAVYYCTRSWRGNSFDYWGQGTTLTVSS
VL: DIVMTQSPSSLTVTAGEKVTMSCKSSQSLLNSGNQKNYLTWYQQKPGQPPKLLIYWASTRESGVPDRFTGSGSGTDFTLTISSVQAEDLAVYYCQNDYSYPFTFGSGTKLEIKR
With B2, the “ADCC effect IC50, FcrR3A-V158-NFAT-RE-Jurkat reporter luminescence, NUGC4 cells with high claudin18.2 expression” value was determined as 0.133 µg/mL; the “ADCC effect IC50, FcrR3A-V158-NFAT-RE-Jurkat reporter luminescence, NUGC4 cells with low claudin18.2 expression” value is 0.183 µg/mL; the “ADCC effect IC50, FcrR3A-V158-NFAT-RE-Jurkat reporter luminescence, NUGC4 cells with moderate claudin18.2 expression” value was 0.21 µg/mL.
